Experimental findings from paper PMC11109483 are described below.

The target in the assay is biotinylated HIP1 (22-309) (UniProt O00291). As to the kind of experiment: SPR; Biacore T200, 25°C; biotinylated HIP1(22-309) immobilised on Sensor Chip NA (900 RU); Ub chains as analytes 60 nM to 250 uM, multicycle; 50 mM Hepes pH 7.5, 300 mM NaCl, 0.5 mM TCEP, 0.05% Tween-20, 1% BSA; steady-state affinity model. (In general: In SPR one partner is held on a chip, and binding of the other changes the refractive index at the surface.)
Sequence of UniProt O00291 (O00291 22-309): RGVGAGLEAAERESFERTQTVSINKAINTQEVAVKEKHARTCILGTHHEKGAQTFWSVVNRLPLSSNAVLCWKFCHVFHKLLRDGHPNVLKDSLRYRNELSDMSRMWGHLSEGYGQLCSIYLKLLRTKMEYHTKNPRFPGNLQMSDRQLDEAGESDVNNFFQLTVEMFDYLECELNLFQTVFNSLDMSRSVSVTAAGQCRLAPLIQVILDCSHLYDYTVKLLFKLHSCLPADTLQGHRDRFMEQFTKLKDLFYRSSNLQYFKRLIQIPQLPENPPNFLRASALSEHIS
For “K63-linked Ub2 (from UniProt P0CG48 1-76; P0CG48 1-76)”, the equilibrium dissociation constant (Kd) (usually the equilibrium constant for the complex coming apart) was found to be 1.89 µM.
“K63-linked Ub3 (from UniProt P0CG48 1-76; P0CG48 1-76)” gave a Kd of 1.55 µM.
“K48-linked Ub2 (from UniProt P0CG48 1-76; P0CG48 1-76)” registered an equilibrium dissociation constant (Kd) of 137 µM.
In turn, “K48-linked Ub3 (from UniProt P0CG48 1-76; P0CG48 1-76)” gave a dissociation constant (Kd) of 66.2 µM.
